In patent US20240026036A1 (AstraZeneca / MedImmune, published 2024):

Key:
[1] = biological target: Recombinant human NGF (Sigma) (human, UniProt P01138 122-241); assay: cell-based or functional assay
[2] = biological target: Recombinant mouse NGF (R&D Systems) (mouse, UniProt P01139 122-241); assay: cell-based or functional assay
Chain of Recombinant mouse NGF (R&D Systems) (P01139 122-241 limits assumed): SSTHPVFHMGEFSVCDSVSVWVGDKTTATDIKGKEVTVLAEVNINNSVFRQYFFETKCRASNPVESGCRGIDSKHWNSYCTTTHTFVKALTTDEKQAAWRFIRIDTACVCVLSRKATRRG

Chain of Recombinant human NGF (Sigma) (P01138 122-241 limits assumed): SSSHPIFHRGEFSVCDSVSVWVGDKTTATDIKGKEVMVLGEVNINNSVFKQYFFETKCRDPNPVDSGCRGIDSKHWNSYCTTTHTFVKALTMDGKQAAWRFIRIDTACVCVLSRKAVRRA

B1: MEDI-578 IgG1 TM YTE (antibody, V domains shown)
VH: QVQLVQSGAEVKKPGSSVKVSCKASGGTFSTYGISWVRQAPGQGLEWMGGIIPIFDTGNSAQSFQGRVTITADESTSTAYMELSSLRSEDTAVYYCARSSRIYDLNPSLTAYYDMDVWGQGTMVTVSS
VL: QSVLTQPPSVSAAPGQKVTISCSGSSSNIGNNYVSWYQQLPGTAPKLLIYDNNKRPSGIPDRFSGSKSGTSATLGITGLQTGDEADYYCGTWDSSLSAWVFGGGTKLTVL
**Q.** Which “IC50 (read off the curve)” value [1] does the source give for B1 here?
**A.** ~0.8 nM

**Q.** And the “IC50 (read off the curve)” value [2]?
**A.** ~0.3 nM
